Source: paper PMC5231900 (Molecular Biology of the Cell, 2017)

Key:
Assay in all cases: pull-down
[1] = target: wild-type HOPS complex purified via Vps41-TAP (yeast, UniProt P38959;Q07468;P20795;P12868;Q03308;P27801)
[2] = target: wild-type HOPS complex purified via Vps39-TAP (yeast, UniProt Q07468;P38959;P20795;P12868;Q03308;P27801)
[3] = target: wild-type Vps39-Vps11 complex (yeast, UniProt Q07468;P12868)
[4] = target: Vps41-Vps3-class C hybrid complex (yeast, UniProt P38959;P23643;P20795;P12868;Q03308;P27801)

Measured: binding result

Sequence of wild-type Vps39-Vps11 complex (Q07468 whole entry, chain 1 of 2): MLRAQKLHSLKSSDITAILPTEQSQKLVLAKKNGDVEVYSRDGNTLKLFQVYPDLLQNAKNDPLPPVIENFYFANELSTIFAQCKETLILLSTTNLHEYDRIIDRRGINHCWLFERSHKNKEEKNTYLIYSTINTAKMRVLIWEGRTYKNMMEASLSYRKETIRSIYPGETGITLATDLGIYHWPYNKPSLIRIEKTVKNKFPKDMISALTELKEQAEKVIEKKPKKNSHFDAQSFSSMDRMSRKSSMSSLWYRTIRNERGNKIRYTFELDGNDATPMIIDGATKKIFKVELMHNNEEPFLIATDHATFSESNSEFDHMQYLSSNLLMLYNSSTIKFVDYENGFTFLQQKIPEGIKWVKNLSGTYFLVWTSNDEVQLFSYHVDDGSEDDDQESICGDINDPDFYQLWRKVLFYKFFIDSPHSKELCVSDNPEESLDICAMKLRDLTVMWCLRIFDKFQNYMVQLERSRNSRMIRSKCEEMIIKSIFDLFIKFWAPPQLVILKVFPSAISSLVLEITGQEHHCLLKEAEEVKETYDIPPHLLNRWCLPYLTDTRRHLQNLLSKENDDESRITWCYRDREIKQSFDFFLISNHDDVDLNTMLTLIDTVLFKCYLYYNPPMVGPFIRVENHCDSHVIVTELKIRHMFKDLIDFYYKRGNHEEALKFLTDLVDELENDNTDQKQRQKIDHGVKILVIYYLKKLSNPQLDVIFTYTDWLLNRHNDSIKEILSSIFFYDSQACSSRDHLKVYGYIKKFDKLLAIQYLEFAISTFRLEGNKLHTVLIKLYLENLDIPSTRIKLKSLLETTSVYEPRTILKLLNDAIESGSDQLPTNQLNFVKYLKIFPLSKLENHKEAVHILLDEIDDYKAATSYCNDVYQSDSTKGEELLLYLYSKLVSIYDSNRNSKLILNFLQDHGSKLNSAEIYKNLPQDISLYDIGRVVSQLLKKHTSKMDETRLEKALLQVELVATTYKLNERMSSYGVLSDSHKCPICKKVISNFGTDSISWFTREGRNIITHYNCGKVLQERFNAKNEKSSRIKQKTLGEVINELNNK
Sequence of wild-type Vps39-Vps11 complex (P12868 whole entry, chain 2 of 2): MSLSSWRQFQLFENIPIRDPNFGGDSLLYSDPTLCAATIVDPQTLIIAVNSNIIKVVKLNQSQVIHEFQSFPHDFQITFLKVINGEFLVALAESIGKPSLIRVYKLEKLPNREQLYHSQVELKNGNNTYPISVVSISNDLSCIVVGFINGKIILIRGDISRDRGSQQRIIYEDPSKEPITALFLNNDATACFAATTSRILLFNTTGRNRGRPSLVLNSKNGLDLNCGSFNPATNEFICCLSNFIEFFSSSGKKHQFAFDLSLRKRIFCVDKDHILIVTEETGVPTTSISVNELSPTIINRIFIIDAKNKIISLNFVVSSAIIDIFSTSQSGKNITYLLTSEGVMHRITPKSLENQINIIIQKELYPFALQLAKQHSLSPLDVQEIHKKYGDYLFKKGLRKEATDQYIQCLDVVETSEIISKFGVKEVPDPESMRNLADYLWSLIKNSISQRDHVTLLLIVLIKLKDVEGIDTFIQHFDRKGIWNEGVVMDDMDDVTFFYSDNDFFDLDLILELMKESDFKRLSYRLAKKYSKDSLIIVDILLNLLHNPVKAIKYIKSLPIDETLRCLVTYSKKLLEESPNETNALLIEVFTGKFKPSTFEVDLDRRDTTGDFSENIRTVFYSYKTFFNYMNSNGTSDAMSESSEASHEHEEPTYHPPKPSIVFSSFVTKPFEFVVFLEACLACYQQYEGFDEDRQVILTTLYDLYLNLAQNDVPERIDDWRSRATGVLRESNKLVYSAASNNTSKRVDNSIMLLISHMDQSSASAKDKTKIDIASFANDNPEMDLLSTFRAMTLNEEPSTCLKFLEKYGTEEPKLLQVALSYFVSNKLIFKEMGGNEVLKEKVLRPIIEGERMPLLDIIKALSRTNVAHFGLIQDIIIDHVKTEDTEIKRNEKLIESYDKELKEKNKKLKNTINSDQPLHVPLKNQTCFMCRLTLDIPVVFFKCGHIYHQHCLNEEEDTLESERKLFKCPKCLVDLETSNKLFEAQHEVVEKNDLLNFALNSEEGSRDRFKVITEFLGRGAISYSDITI

B1: GST-Ypt7 (natural protein)
chain: MSSRKKNILKVIILGDSGVGKTSLMHRYVNDKYSQQYKATIGADFLTKEVTVDGDKVATMQVWDTAGQERFQSLGVAFYRGADCCVLVYDVTNASSFENIKSWRDEFLVHANVNSPETFPFVILGNKIDAEESKKIVSEKSAQELAKSLGDIPLFLTSAKNAINVDTAFEEIARSALQQNQADTEAFEDDYNDAINIRLDGENNSCSC
binds: all assays above
